Among the data in patent US20150274841A1 (DYAX, published 2015) are Ki values, retold here.

Positions count from the first letter of the chain named.

First the molecules themselves.
B1: X133-G05 (Fab, V domains shown)
VH: EVQLLESGGGLVQPGGSLRLSCAASGFTFSHYIMMWVRQAPGKGLEWVSGIYSSGGITVYADSVKGRFTISRDNSKNTLYLQMNSLRAEDTAVYYCAYRRTGSPRRDAFDIWGQGTMVTVSS
VL: DIQMTQSPSTLSASVGDRVTITCRASQSISSWLAWYQQKPGKAPNLLIYKASTLESGVPSRFSGSGSGTEFTLTISSLQPDDFATYYCQQYNTYWTFGQGTKVEIK
B2: M0201-A07 (Fab, V domains shown)
VH: B1 VH with S103V, A108E
VL: B1 VL
B3: M0202-A08 (Fab, V domains shown)
VH: B1 VH with S103I, R106W
VL: B1 VL
B4: M0202-H03 (Fab, V domains shown)
VH: B1 VH with S103V, R106W, A108D
VL: B1 VL
B5: M0202-E06 (Fab, V domains shown)
VH: B1 VH with T101R, S103V, A108D
VL: B1 VL
B6: M0202-009 (Fab, V domains shown)
VH: B1 VH with T101I, S103V, A108D
VL: B1 VL
B7: M0201-H06 (Fab, V domains shown)
VH: B1 VH with S103V
VL: B1 VL
B8: X133-F10 (Fab, V domains shown)
VH: B1 VH with S103L
VL: B1 VL
B9: M0202-E03 (Fab, V domains shown)
VH: B1 VH with S103I, D110E
VL: B1 VL
B10: M0200-B01 (Fab, V domains shown)
VH: B1 VH with S103I, I111S
VL: B1 VL
B11: M0200-D03 (Fab, V domains shown)
VH: B1 VH with T101I, S103V, A108S, I111M
VL: B1 VL
B12: X135-A01 (Fab, V domains shown)
VH: B1 VH with S103A
VL: B1 VL
B13: M0202-C02 (Fab, V domains shown)
VH: B1 VH with T101P, S103V
VL: B1 VL
B14: M0201-F11 (Fab, V domains shown)
VH: B1 VH with T101S, S103I
VL: B1 VL
B15: M0202-D09 (Fab, V domains shown)
VH: B1 VH with T101I, S103V, A108S
VL: B1 VL
B16: M0202-B04 (Fab, V domains shown)
VH: B1 VH with T101S, S103V
VL: B1 VL
B17: M0199-All (Fab, V domains shown)
VH: B1 VH with T101R, S103I
VL: B1 VL
B18: M0199-B01 (Fab, V domains shown)
VH: B1 VH with S103I, I111N
VL: B1 VL
B19: M0202-G03 (Fab, V domains shown)
VH: B1 VH with S103V, A108S, D110E
VL: B1 VL
notes: HC CDR3 variant of M0162-A04, tested as Fab
B20: M0202-H05 (Fab, V domains shown)
VH: B1 VH with S103V, A108V
VL: B1 VL
notes: as for B19
B21: M0201-H08 (Fab, V domains shown)
VH: B1 VH with S103V, F109L, I111N
VL: B1 VL
notes: as for B19
B22: M0199-A08 (Fab, V domains shown)
VH: B1 VH with T101I, S103V, A108E
VL: B1 VL
notes: also called M199-A08
B23: X133-D06 (Fab, V domains shown)
VH: B1 VH with T101I, S103I, A108E
VL: B1 VL
notes: as for B19
B24: M0200-A10 (Fab, V domains shown)
VH: B1 VH with S103V, A108S
VL: B1 VL
notes: as for B19
B25: X135-A03 (Fab, V domains shown)
VH: B1 VH with S103I, A108E
VL: B1 VL
notes: as for B19
B26: M0200-H07 (Fab, V domains shown)
VH: B1 VH with S103V, D107N, I111N
VL: B1 VL
notes: as for B19
B27: M0202-F06 (Fab, V domains shown)
VH: B1 VH with S103V, R106W
VL: B1 VL
notes: as for B19
B28: M0202-Al2 (Fab, V domains shown)
VH: B1 VH with R99Q, S103V, A108S, D110N
VL: B1 VL
notes: HC CDR3 variant of M0162-A04, tested as Fab; also called M0202-A12 (probable reading)
B29: M0202-A01 (Fab, V domains shown)
VH: B1 VH with T101I, S103V
VL: B1 VL
notes: as for B19
B30: M0200-E11 (Fab, V domains shown)
VH: B1 VH with S103V, I111N
VL: B1 VL
notes: as for B19
B31: M0201-A06 (Fab, V domains shown)
VH: B1 VH with S103I, A108V
VL: B1 VL
notes: as for B19
B32: X133-B02 (Fab, V domains shown)
VH: B1 VH with T101I, S103I
VL: B1 VL
notes: as for B19

T1 sequence (P03952 20-638 limits assumed): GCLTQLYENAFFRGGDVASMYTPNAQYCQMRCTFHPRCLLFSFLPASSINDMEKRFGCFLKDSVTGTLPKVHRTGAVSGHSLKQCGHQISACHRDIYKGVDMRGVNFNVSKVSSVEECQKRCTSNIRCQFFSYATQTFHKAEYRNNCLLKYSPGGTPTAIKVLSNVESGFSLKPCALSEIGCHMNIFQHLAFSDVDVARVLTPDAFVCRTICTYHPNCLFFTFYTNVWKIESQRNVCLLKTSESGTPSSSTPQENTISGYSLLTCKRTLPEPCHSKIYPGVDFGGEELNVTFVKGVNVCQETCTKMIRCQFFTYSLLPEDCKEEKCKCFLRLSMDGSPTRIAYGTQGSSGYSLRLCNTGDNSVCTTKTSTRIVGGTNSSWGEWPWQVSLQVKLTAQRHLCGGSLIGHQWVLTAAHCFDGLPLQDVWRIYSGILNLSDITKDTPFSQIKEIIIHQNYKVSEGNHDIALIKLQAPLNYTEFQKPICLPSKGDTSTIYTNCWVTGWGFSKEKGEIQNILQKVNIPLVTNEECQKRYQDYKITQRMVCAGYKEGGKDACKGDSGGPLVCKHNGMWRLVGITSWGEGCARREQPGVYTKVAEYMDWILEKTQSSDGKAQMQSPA

The first experiment has as its target T1, human plasma kallikrein (PKal) (human, UniProt P03952 20-638).
T1 construct: Active PKal is cleaved at the marked R/I site into two disulfide-linked chains; also called human Pkal; active PKal
Description: Ki,app; Fab inhibition of PKal cleavage of a substrate peptide, Morrison fit. How it is done:
(§1) Briefly, PKal and a Fab at various concentrations are incubated together for 1 hour at 30° C. A substrate peptide (cleavable by PKal) is then added to this PKal-Fab mixture. The rate of substrate peptide cleavage/proteolysis is then measured, and plotted against the concentrations of the Fab. This plot is then fit to the Morrison equation, which calculates the K_{i,app} value. The results thus obtained are shown in FIGS. 5A-5D and Table 3 below: […]
As to B1, the Ki worked out at 1410 nM.

With B2, the Ki turned out to be 0.1 nM.

As for B3, the Ki is 2.8 nM.

Consider B4, for which the Ki turned out to be 0.1 nM.

Molecule B5 yielded a Ki of 0.06 nM.

B6 showed a Ki of 0.06 nM.

On to B7, for which the Ki worked out at 0.6 nM.

Consider B8, for which the Ki is 14.7 nM.

In turn, B9 came in with a Ki of 2 nM.

For B10, the Ki amounted to 3.6 nM.

For the molecule B11, the Ki was found to be 0.1 nM.

The molecule B12 registered a Ki of 248 nM.

Take B13: the Ki stood at 0.6 nM.

Molecule B14 returned a Ki of 3 nM.

For the molecule B15, the Ki was 0.2 nM.

As for B16, the Ki is 0.2 nM.

The molecule B17 showed a Ki of 2 nM.

Molecule B18 yielded a Ki of 1.6 nM.

In turn, B19 showed a Ki of 0.4 nM.

As to B20, the Ki amounted to 0.26 nM.

In the case of B21, the Ki was 0.8 nM.

The molecule B22 registered a Ki of 0.06 nM.

The molecule B23 showed a Ki of 0.33 nM.

B24 registered a Ki of 0.25 nM.

As for B25, the Ki is 1.1 nM.

In turn, B26 yielded a Ki of 0.4 nM.

Consider B27, for which the Ki was 0.33 nM.

In turn, B28 gave a Ki of 0.1 nM.

In the case of B29, the Ki worked out at 0.3 nM.

Molecule B30 registered a Ki of 0.4 nM.

Molecule B31 came in with a Ki of 3.8 nM.

With B32, the Ki was 2.2 nM.

In the next experiment the target is T1, human plasma kallikrein (PKal). Description: enzyme inhibition assay: rate (F/s) of substrate peptide cleavage by PKal against [2930] (pM), fitted to the Morrison equation; apparent Ki (Ki,app); no unit stands beside the value, pM is the unit of the concentration axis; Table 3 prints 0.06 nM. Here is the method: as §1
For B22, the Ki worked out at 0.099 nM.

A further experiment has the same target. Nature of the experiment: enzyme inhibition assay: rate (F/s) of substrate peptide cleavage by PKal against [Fab] (nM), fitted to the Morrison equation; apparent Ki (Ki,app); Table 3 prints it rounded, 2.2 nM. Here is the method: as §1
For the molecule B32, the Ki was found to be 2.22 nM.

For the next experiment the target is unchanged. Nature of the experiment: enzyme inhibition assay: rate (F/s) of substrate peptide cleavage by PKal against [Fab] (nM), fitted to the Morrison equation; apparent Ki (Ki,app); Table 3 prints it rounded, 14.7 nM.
Regarding B8, the Ki amounted to 14.7 nM.

A further experiment has the same target. Description: enzyme inhibition assay: rate (F/s) of substrate peptide cleavage by PKal against [Fab] (nM), fitted to the Morrison equation; apparent Ki (Ki,app); Table 3 prints it rounded, 1405.6 nM.
For the molecule B1, the Ki was found to be 1410 nM.

A further experiment shares this target. Nature of the experiment: enzyme inhibition assay: rate (F/s) of substrate peptide cleavage by PKal against [Fab] (nM), fitted to the Morrison equation; apparent Ki (Ki,app); Table 3 prints 0.33 nM. Here is the method: as §1
B23: the Ki came to 0.301 nM.

A further experiment has the same target. Description: enzyme inhibition assay: rate (F/s) of substrate peptide cleavage by PKal against [Fab] (nM), fitted to the Morrison equation; apparent Ki (Ki,app); Table 3 prints 1.1 nM. How it is done: as §1
Consider B25, for which the Ki came out at 1.25 nM.
